Positions of bridges follow the written chain, without caps; N, C: chain ends. Non-standard residues stand in square brackets, D forms with d. Residues, ends and D or L forms follow the SMILES beside them. *: point of attachment. X1 = C=Cc1c(C)c2cc3nc(c(CC(=O)O)c4[nH]c(cc5nc(cc1[nH]2)C(C)=C5CC)c(C)c4C(=O)O)[C@@H](CCC(=O)*)[C@@H]3C
Tests used:
[1] = 1-Octanol/PBS partition coefficient; format: physicochemical; conditions: pH 7.4
Method: Partition coefficient. Stock solutions of Ce6 and conjugates (0.6 mM) were prepared in DMSO. Lipophilicity was characterized by their partition coefficient Poct/buffer = Coct/Cbuffer between two solvents 1-octanol (oct) and PBS, pH = 7.4 (buffer). Measurements were carried out in duplicates as described by Cunderlikova et al.

[2] = pH titration of fluorescence/absorbance (pKa); format: physicochemical
Method: pH measurements. The pH titration of PBS was performed with HNO3 and NaOH over pH 4.0-8.5. The final concentration of Ce6 and Ce6-conjugates in solution was 0.8 µM. The pH was measured by Sentron pH meter (Sentron Europe, NL) and the absorption and fluorescence emission (λexc = 408 nm) profiles of solutions were recorded. The inflection point of titration curves (pKa) were evaluated as reported. Briefly, the results of fluorescence titrations are presented in terms of a plot of fluorescence intensity as a function of pH with the constant concentration of the compound used throughout measurements. However, variations of fluorescence intensity are due to at least two contributions: the changes of molar extinction coefficient (differed absorbed intensity) and the changes of quantum efficiency with pH. To eliminate the influence of the molar extinction coefficient variations, the ratio of fluorescence intensity at the peak position to the absorbance at the excitation wavelength was plotted, followed by sigmoidal function fitting procedure (Figures S2-S4).

sst2 = target: T1, sst2 (Homo sapiens, UniProt P30874); assay: Displacement of [125I]-SS14 binding, membrane preparations of K562 sst2+ cells; conditions: membrane preparations of K562 sst2+ cells; displacement by increasing concentrations of unlabeled compound; read-out: IC50, competition with specific binding of [125I]-SS14
T1 construct: expressed in transfected cells; host or cells: K562 (human erythroleukemic) cells stably transfected with LZRS-lyt2-IRES-sst2; membrane preparations
T1 sequence (P30874 whole entry): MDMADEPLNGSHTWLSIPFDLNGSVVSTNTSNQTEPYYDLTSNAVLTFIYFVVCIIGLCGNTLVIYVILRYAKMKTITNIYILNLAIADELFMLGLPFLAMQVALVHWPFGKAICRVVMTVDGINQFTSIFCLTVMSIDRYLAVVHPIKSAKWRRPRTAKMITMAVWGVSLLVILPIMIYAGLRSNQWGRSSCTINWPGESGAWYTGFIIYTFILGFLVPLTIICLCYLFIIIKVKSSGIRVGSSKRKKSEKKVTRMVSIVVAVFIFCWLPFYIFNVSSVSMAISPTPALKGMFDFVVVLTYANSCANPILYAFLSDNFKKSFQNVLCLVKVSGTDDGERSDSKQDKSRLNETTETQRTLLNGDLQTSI
Method: Copy DNA of the human sst2 receptor was merged into a LZRS-lyt2-IRES plasmid background (lyt2 being the mouse CD8 receptor). The calcium precipitation method was used to transfect non-adherent K562 cells with the LZRS-lyt2-IRES-sst2. Expression of lyt2 was evaluated by means of FACS analysis using FITC labeled anti-mouse CD8 antibody (BD PharMingen, Netherlands), 1∶160 diluted in FACS-buffer. Clones were grown form Lyt2 positive isolated cells. Vital clones were cultured and tested in time for stability of sst2 receptor expression, by means of both FACS analysis (using FITC labeled octreotate 200 nM) as well as sst2 mRNA expression by RT-PCR as previously described. […] K562 cells were grown in RPMI 1640 containing L-glutamine, 10% heat-inactivated FCS, 50 µg/ml penicillin and 50 µg/ml streptomycin, and were maintained in an incubator at 37°C in an humidified atmosphere of 5% CO2.
The binding potency of Ce6-conjugates to sst2 on K562 sst2 ^+ cells was evaluated on cell membrane preparations.

[3] = Photobleaching under 652 nm irradiation in PBS; format: physicochemical
Method: Photobleaching measurements. The loss of photosensitizer absorbance and fluorescence during irradiation was used to monitor photobleaching. Solutions of Ce6 and Ce6-conjugates were prepared in PBS pH = 7.4. The concentration of photosensitizers were adjusted so that all absorb the same number of photons at irradiated region (O.D. = 0.014 at the λirr. = 652 nm (Biolitec pharma, UK). Data was acquired in quartz cuvettes in aerobic conditions using stirring under uniform, measured irradiation at 5 mWcm^-2. At intervals, the cuvette was removed from magnetic stirrer and absorption and fluorescence emission spectrum (λexc = 405 nm) acquired. The initial absorption bleaching rate constants (kblA) for Ce6 and conjugates were evaluated as reported.

IC50 (sst2): 68 nM
SMILES: C=Cc1c(C)c2cc3nc(c(CC(=O)O)c4[nH]c(cc5nc(cc1[nH]2)C(C)=C5CC)c(C)c4C(=O)O)[C@@H](CCC(=O)N[C@@H](CCCCN)C(=O)N[C@@H](CCCCN)C(=O)N[C@@H](CCCCN)C(=O)N[C@H](Cc1ccccc1)C(=O)N[C@H]1CSSC[C@@H](C(=O)N[C@H](C(=O)O)[C@@H](C)O)NC(=O)[C@H]([C@@H](C)O)NC(=O)[C@H](CCCCN)NC(=O)[C@@H](Cc2c[nH]c4ccccc24)NC(=O)[C@H](Cc2ccc(O)cc2)NC1=O)[C@@H]3C [Conjugate 1, Ce6-K3-[Tyr3]-octreotate] (X1-KKK[dF]CY[dW]KTCT-OH; disulfide 5-10)
logD [1]: 0.679 ± 0.04 | pKa, inflection point of pH titration curve [2]: 5.38±0.0615 | photostability [3]: higher photostability
